In the Human Domainome abundance scans (Beltran et al. 2025):
± gives the uncertainty stated by the source.

B1: KAT8 regulatory NSL complex subunit 2, residues 28 to 91; numbered along this chain, Q9H9L4 (parent)
chain: CAFTHRPCSHPRLEGQEFCIKHILEDKNAPFKQCSYISTKNGKRCPNAAPKPEKKDGVSFCAEH
B2: Syntaxin-binding protein 4, residues 493 to 538; numbered along this chain, Q6ZWJ1 (parent)
chain: LDMDCLPYGWEEAYTADGIKYFINHVTQTTSWIHPVMSVLNLSRSE

Variants of: B1
Assay: abundance fitness (aPCA) (normalised: wild type 0, dead -1); higher = more abundant; growth selection in yeast, the domain comes from the species named
Details: Homo sapiens

Variant	abundance fitness
CNFTHRPCSHPRLEGQEFCIKHILEDKNAPFKQCSYISTKNGKRCPNAAPKPEKKDGVSFCAEH	0.023 ± 0.17
CGFTHRPCSHPRLEGQEFCIKHILEDKNAPFKQCSYISTKNGKRCPNAAPKPEKKDGVSFCAEH	-0.101 ± 0.055
CMFTHRPCSHPRLEGQEFCIKHILEDKNAPFKQCSYISTKNGKRCPNAAPKPEKKDGVSFCAEH	-0.014 ± 0.082
CCFTHRPCSHPRLEGQEFCIKHILEDKNAPFKQCSYISTKNGKRCPNAAPKPEKKDGVSFCAEH	-0.08 ± 0.093
CLFTHRPCSHPRLEGQEFCIKHILEDKNAPFKQCSYISTKNGKRCPNAAPKPEKKDGVSFCAEH	-0.152 ± 0.069
CFFTHRPCSHPRLEGQEFCIKHILEDKNAPFKQCSYISTKNGKRCPNAAPKPEKKDGVSFCAEH	-0.513 ± 0.14
CEFTHRPCSHPRLEGQEFCIKHILEDKNAPFKQCSYISTKNGKRCPNAAPKPEKKDGVSFCAEH	-0.522 ± 0.1
CHFTHRPCSHPRLEGQEFCIKHILEDKNAPFKQCSYISTKNGKRCPNAAPKPEKKDGVSFCAEH	-0.231 ± 0.1
CPFTHRPCSHPRLEGQEFCIKHILEDKNAPFKQCSYISTKNGKRCPNAAPKPEKKDGVSFCAEH	-0.421 ± 0.084
CIFTHRPCSHPRLEGQEFCIKHILEDKNAPFKQCSYISTKNGKRCPNAAPKPEKKDGVSFCAEH	-0.198 ± 0.13
CQFTHRPCSHPRLEGQEFCIKHILEDKNAPFKQCSYISTKNGKRCPNAAPKPEKKDGVSFCAEH	-0.186 ± 0.16
CDFTHRPCSHPRLEGQEFCIKHILEDKNAPFKQCSYISTKNGKRCPNAAPKPEKKDGVSFCAEH	-0.388 ± 0.13
CKFTHRPCSHPRLEGQEFCIKHILEDKNAPFKQCSYISTKNGKRCPNAAPKPEKKDGVSFCAEH	-0.153 ± 0.14
IAFTHRPCSHPRLEGQEFCIKHILEDKNAPFKQCSYISTKNGKRCPNAAPKPEKKDGVSFCAEH	-0.287 ± 0.34
EAFTHRPCSHPRLEGQEFCIKHILEDKNAPFKQCSYISTKNGKRCPNAAPKPEKKDGVSFCAEH	-0.322 ± 0.09
SAFTHRPCSHPRLEGQEFCIKHILEDKNAPFKQCSYISTKNGKRCPNAAPKPEKKDGVSFCAEH	-0.358 ± 0.072
NAFTHRPCSHPRLEGQEFCIKHILEDKNAPFKQCSYISTKNGKRCPNAAPKPEKKDGVSFCAEH	-0.615 ± 0.19
AAFTHRPCSHPRLEGQEFCIKHILEDKNAPFKQCSYISTKNGKRCPNAAPKPEKKDGVSFCAEH	-0.343 ± 0.27
GAFTHRPCSHPRLEGQEFCIKHILEDKNAPFKQCSYISTKNGKRCPNAAPKPEKKDGVSFCAEH	-0.604 ± 0.15
YAFTHRPCSHPRLEGQEFCIKHILEDKNAPFKQCSYISTKNGKRCPNAAPKPEKKDGVSFCAEH	-0.802 ± 0.062
WAFTHRPCSHPRLEGQEFCIKHILEDKNAPFKQCSYISTKNGKRCPNAAPKPEKKDGVSFCAEH	-0.837 ± 0.12
MAFTHRPCSHPRLEGQEFCIKHILEDKNAPFKQCSYISTKNGKRCPNAAPKPEKKDGVSFCAEH	-0.576 ± 0.16
TAFTHRPCSHPRLEGQEFCIKHILEDKNAPFKQCSYISTKNGKRCPNAAPKPEKKDGVSFCAEH	-0.89 ± 0.29
KAFTHRPCSHPRLEGQEFCIKHILEDKNAPFKQCSYISTKNGKRCPNAAPKPEKKDGVSFCAEH	-0.155 ± 0.15
DAFTHRPCSHPRLEGQEFCIKHILEDKNAPFKQCSYISTKNGKRCPNAAPKPEKKDGVSFCAEH	-0.896 ± 0.17
RAFTHRPCSHPRLEGQEFCIKHILEDKNAPFKQCSYISTKNGKRCPNAAPKPEKKDGVSFCAEH	-0.545 ± 0.14
LAFTHRPCSHPRLEGQEFCIKHILEDKNAPFKQCSYISTKNGKRCPNAAPKPEKKDGVSFCAEH	-0.886 ± 0.14
VAFTHRPCSHPRLEGQEFCIKHILEDKNAPFKQCSYISTKNGKRCPNAAPKPEKKDGVSFCAEH	-0.865 ± 0.094

Variants of: B2
Assay: as above
Details: Homo sapiens

Variant	abundance fitness
R44W	-0.527 ± 0.15
R44K	-0.162 ± 0.14
R44N	-0.104 ± 0.14
R44T	-0.285 ± 0.13
R44D	0.169 ± 0.12
R44P	0.041 ± 0.12
R44F	-0.881 ± 0.18
R44L	-0.512 ± 0.11
R44G	0.377 ± 0.077
R44V	-0.147 ± 0.085
R44E	0.376 ± 0.11
R44M	-0.292 ± 0.15
R44Y	-0.109 ± 0.14
R44H	-0.287 ± 0.15
R44A	-0.134 ± 0.098
R44S	0.096 ± 0.087
R44I	-1.3 ± 0.33
R44Q	-0.063 ± 0.13
R44C	0.016 ± 0.11
V36F	-0.444 ± 0.12
V36Y	-0.254 ± 0.13
V36W	-0.424 ± 0.12
V36Q	0.391 ± 0.1
V36S	0.659 ± 0.084
V36E	0.44 ± 0.093

Variant	abundance fitness
V36L	-0.035 ± 0.082
V36K	0.746 ± 0.11
V36N	0.571 ± 0.14
V36H	0.224 ± 0.14
V36R	0.712 ± 0.081
V36C	0.585 ± 0.11
V36G	0.528 ± 0.082
V36A	0.59 ± 0.083
V36P	-0.597 ± 0.12
V36T	0.526 ± 0.095
V36D	0.168 ± 0.11
V36I	-0.598 ± 0.15
H34E	-0.826 ± 0.13
H34Q	-0.555 ± 0.15
H34V	-1 ± 0.14
H34S	-0.443 ± 0.097
H34K	-0.686 ± 0.15
H34R	-0.488 ± 0.082
H34P	-0.181 ± 0.11
H34M	-0.74 ± 0.17
H34G	-0.822 ± 0.1
H34N	-0.141 ± 0.13
H34T	-0.877 ± 0.13
H34I	-0.724 ± 0.19
H34F	-1.14 ± 0.31

Variant	abundance fitness
H34D	-0.54 ± 0.24
H34C	-0.439 ± 0.12
H34Y	-0.689 ± 0.15
H34W	-1.11 ± 0.15
L40V	-0.273 ± 0.096
L40G	0.164 ± 0.085
L40S	0.139 ± 0.085
L40T	-0.319 ± 0.11
L40D	-0.471 ± 0.17
L40K	0.041 ± 0.11
L40Q	0.046 ± 0.11
L40R	-0.003 ± 0.082
L40C	-0.154 ± 0.11
L40E	0.111 ± 0.11
L40W	-0.136 ± 0.1
L40A	-0.127 ± 0.11
L40H	0.07 ± 0.19
L40Y	-0.584 ± 0.16
L40P	0.067 ± 0.11
L40F	-0.304 ± 0.14
L40I	-0.816 ± 0.16
L40N	0.04 ± 0.15
S45M	-0.986 ± 0.29
S45E	0.092 ± 0.18
S45A	-0.186 ± 0.11

Variant	abundance fitness
S45P	-0.127 ± 0.15
S45H	-0.438 ± 0.16
S45Y	-0.287 ± 0.13
S45T	-0.089 ± 0.11
S45K	-0.169 ± 0.18
S45R	-0.173 ± 0.11
S45D	-0.06 ± 0.14
S45W	-0.914 ± 0.22
S45Q	-0.32 ± 0.2
S45L	-0.509 ± 0.11
S45V	-0.103 ± 0.11
S45F	-0.759 ± 0.18
P35T	-0.686 ± 0.16
P35M	-0.814 ± 0.14
P35W	-0.775 ± 0.16
P35R	-0.88 ± 0.097
P35E	-0.634 ± 0.15
P35Q	-0.72 ± 0.14
P35A	-1.01 ± 0.11
P35N	-0.862 ± 0.18
P35I	-0.82 ± 0.16
P35H	-0.83 ± 0.15
P35V	-0.882 ± 0.1
P35K	-0.533 ± 0.15
P35S	-0.661 ± 0.11

Variant	abundance fitness
P35F	-0.895 ± 0.16
P35C	-1.06 ± 0.21
P35Y	-0.369 ± 0.15
N41T	-0.23 ± 0.12
N41P	-0.38 ± 0.11
N41A	-0.313 ± 0.087
N41M	-0.403 ± 0.11
N41H	-0.681 ± 0.2
N41W	-0.197 ± 0.093
N41V	-0.694 ± 0.098
N41S	-0.227 ± 0.09
N41L	-0.684 ± 0.1
N41E	-0.227 ± 0.1
N41Q	-0.514 ± 0.14
N41F	-1.02 ± 0.2
N41K	-0.635 ± 0.15
N41G	-0.215 ± 0.083
N41C	-0.236 ± 0.14
N41R	-0.493 ± 0.096
N41D	0.174 ± 0.12
S38C	-0.567 ± 0.14
S38R	-0.418 ± 0.085
S38E	-0.693 ± 0.13
S38H	-0.678 ± 0.21
S38M	-0.663 ± 0.13

Variant	abundance fitness
S38F	-0.531 ± 0.13
S38T	-0.75 ± 0.13
S38I	-0.845 ± 0.23
S38L	-0.78 ± 0.11
S38Q	-0.697 ± 0.15
S38N	-0.046 ± 0.13
S38A	-0.649 ± 0.1
S38Y	-0.376 ± 0.14
S38V	-0.502 ± 0.094
S38D	-0.004 ± 0.13
S38K	-0.479 ± 0.11
S38P	-0.141 ± 0.097
S38W	-0.264 ± 0.1
S43M	-0.75 ± 0.17
S43N	0.116 ± 0.16
S43P	-0.064 ± 0.12
S43A	-0.526 ± 0.11
S43K	-0.846 ± 0.23
S43E	0.119 ± 0.11
S43T	-0.183 ± 0.14
S43Q	-0.732 ± 0.26
S43D	0.129 ± 0.12
S43I	-0.606 ± 0.16
S43C	-0.518 ± 0.13
S43W	-1 ± 0.16

Variant	abundance fitness
S43R	-0.17 ± 0.094
S43L	-0.698 ± 0.14
S43H	-0.021 ± 0.25
S43Y	-0.876 ± 0.24
S43F	-0.531 ± 0.12
S43V	-0.44 ± 0.11
L42S	0.162 ± 0.095
L42M	-0.046 ± 0.11
L42Y	-0.876 ± 0.21
L42C	0.025 ± 0.12
L42R	0.108 ± 0.085
L42D	0.022 ± 0.14
L42H	0.52 ± 0.14
L42W	-0.292 ± 0.1
L42G	0.174 ± 0.077
L42P	-0.304 ± 0.14
L42T	0.048 ± 0.12
L42E	0.198 ± 0.1
L42K	0.16 ± 0.12
L42A	-0.05 ± 0.088
L42V	0.052 ± 0.081
L42N	0.578 ± 0.12
V39T	0.04 ± 0.11
V39A	-0.135 ± 0.095
V39I	-0.599 ± 0.15

Variant	abundance fitness
V39G	0.352 ± 0.086
V39K	-0.205 ± 0.12
V39Y	-0.851 ± 0.26
V39D	0.466 ± 0.11
V39C	-0.134 ± 0.16
V39S	-0.079 ± 0.093
V39W	-0.55 ± 0.13
V39P	1.03 ± 0.11
V39R	-0.083 ± 0.086
V39F	0.072 ± 0.15
V39E	0.144 ± 0.098
V39N	0.168 ± 0.18
V39Q	0.223 ± 0.12
V39H	-0.263 ± 0.18
V39M	-0.174 ± 0.12
V39L	-0.386 ± 0.097
M37N	0.404 ± 0.21
M37A	0.219 ± 0.093
M37R	0.558 ± 0.079
M37F	-0.292 ± 0.18
M37Y	-0.374 ± 0.2
M37S	0.28 ± 0.09
M37Q	0.397 ± 0.12
M37C	0.056 ± 0.11
M37H	-0.15 ± 0.17

Variant	abundance fitness
M37G	0.059 ± 0.08
M37T	0.146 ± 0.11
M37E	0.327 ± 0.095
M37L	-0.085 ± 0.092
M37K	0.38 ± 0.11
M37P	-0.603 ± 0.14
M37V	-0.226 ± 0.1
E46G	0.23 ± 0.12
E46T	-0.143 ± 0.24
E46R	-0.132 ± 0.2
E46N	-0.139 ± 0.31
E46L	-0.668 ± 0.37
E46A	-0.517 ± 0.18
E46D	-0.243 ± 0.13
E46V	-0.365 ± 0.19
E46Q	0.008 ± 0.5
E46S	-0.582 ± 0.49
E46K	-0.478 ± 0.4
E46F	-0.308 ± 0.3
E46C	0.486 ± 0.49
I33Y	-0.162 ± 0.17
I33T	-0.075 ± 0.12
I33W	-0.743 ± 0.13
